Reference: paper PMC11009412, “Pathogenic mutations of human phosphorylation sites affect protein–protein interactions” (Nature Communications, 2024)

System: BirA*-FLAG-GATAD1 variants in Flp-In-293 cells
Test: BioID proximity labelling of full-length GATAD1 variants (SILAC)
Format: cell-based, human
Details: GATAD1 WT vs S102P, significant proteins only; for Log2_Ratio.H.L.normalized.WT_S102P_forward: forward experiment (label swap performed, sign inverted against the H/L ratio); for Log2_Ratio.H.L.normalized.WT_S102P_forward / Log2_Ratio.H.L.normalized.WT_S102P_reverse: log2 of normalized H/L ratio; for Ratio.H.L.normalized.WT_S102P_forward: forward experiment; for Log2_Ratio.H.L.normalized.WT_S102P_reverse / Ratio.H.L.normalized.WT_S102P_reverse: reverse experiment
Text: The GATAD1 gene variants were ordered in a pTwist ENTR Kozak vector from Twist Bioscience. The genes were then transferred to a pDEST_pcDNA5_BirA_FLAG_Nterm vector[97] using the Gateway Clonase II system (Thermo Fisher Scientific). The resulting vectors, pEXPR_GATAD1-WT_N-term_BirA_FLAG, pEXPR_GATAD1-S102P_N-term_BirA_FLAG, pEXPR_GATAD1-S102D_N-term_BirA_FLAG, and pEXPR_GATAD1-S102A_N-term_BirA_FLAG, were used to generate tetracycline-inducible stable Flp-In^TM-293 T-REx cells. A 6-well plate was co-transfected with 0.5 µg of the pEXPR plasmid and 1 µg of the pOG44 Flp-recombinase expression vector (Thermo Fisher Scientific) using 4.5 µg of PEI (Polysciences) as a transfection reagent. The following day, the cells were trypsinized and transferred to a 10 cm dish containing DMEM supplemented with 10% FCS and 200 µg/ml hygromycin B (Invivogen) for selection. The cells were cultured for approximately 18 days with media exchange every 3 days until visible colonies were observed. After around 18 days, the colonies were trypsinized and transferred to another 10 cm dish for further characterization and experiments.
Stable Flp-In^TM-293 cell lines expressing GATAD1 variants were cultured using SILAC light (Lys0, Arg0) and SILAC heavy (Lys8, Arg10) media, as explained in the cell culture section. After full labeling, cells were split into 15 cm dishes and were treated with 1 μg/mL tetracycline for 24 h to induce the expression of GATAD1. After the induction period, cells were incubated with 50 μM biotin overnight for proximity biotinylation. As a control, wild-type GATAD1 cells, without biotin or tetracycline addition, were used. Samples were multiplexed, as shown in Supplementary Fig. 41A with both forward and reverse label swap (n = 2). Cells were then lysed in lysis buffer (50 mM Tris-HCl pH 7.5, 150 mM NaCl, 1% Triton X-100, 1 mM EDTA, 1 mM EGTA, 0.1% SDS) with freshly added protease inhibitors and 1% sodium deoxycholate. To digest the excess DNA, 1 μl of Benzonase was added, and the samples were incubated for 20 min at 37 °C. Biotinylated proteins were enriched for 3 h at 4 °C using streptavidin-sepharose beads (GE Cat# 17-5113-01). Beads were pre-washed twice with 0.01% BSA and twice with lysis buffer. After enrichment, the beads were washed one time with lysis buffer, two times with washing buffer (50 mM HEPES-KOH pH 8.0, 100 mM KCl, 10% glycerol, 2 mM EDTA, 0.1% NP-40), and six times with 50 mM ammonium bicarbonate. Beads were resuspended in ammonium bicarbonate, and an on-bead protein digest with 1 μg of trypsin followed overnight. The next day, the digested proteins were transferred to a fresh tube and were incubated with 10 mM DTT for 30 min at 37 °C and with 55 mM iodoacetamide for 20 min at 37 °C in the dark. Samples were desalted with StageTips.
Peptides were separated using reversed-phase liquid chromatography (EASY nLC II 1200, Thermo Fisher Scientific) with self-made C18 microcolumns (20 cm long) packed with ReproSil-Pur C18-AQ 1.9 μm resin (Dr. Maisch, cat# r119.aq.0001). The chromatography system was coupled online to the electrospray ion source (Proxeon) of an Orbitrap Exploris 480 mass spectrometer (Thermo Fisher Scientific). The mobile phase consisted of buffer A (0.1% formic acid and 5% acetonitrile) and buffer B (0.1% formic acid and 80% acetonitrile). Peptides were eluted using a gradient with increasing concentrations of buffer B over 110 minutes, at a flow rate of 250 nl/min. Mass spectrometry data was acquired in data-dependent mode with settings for one full scan (resolution: 60,000; m/z range: 350–1600; normalized AGC target: 300%; maximum injection time: 10 ms), followed by top 20 MS/MS scans using higher-energy collisional dissociation (resolution: 15,000; m/z range: 200–2000; normalized AGC target: 100%; maximum injection time: 120 ms; isolation width: 1.3 m/z; normalized collision energy: 28%).
Raw files were analyzed with MaxQuant, version 2.0.3.0. […]

Row | Molecule | Log2_Ratio.H.L.normalized.WT_S102P_forward | Ratio.H.L.normalized.WT_S102P_forward | Log2_Ratio.H.L.normalized.WT_S102P_reverse | Ratio.H.L.normalized.WT_S102P_reverse
1 | MFAP1 (protein, UniProt P55081 2-439, looked up) Microfibrillar-associated …: SVPSALMKQPPIQSTAGAVPVRNEKGEISMEKVKVKRYVSGKRPDYAPMESSDEEDEEFQFIKKAKEQEAEPEEQEEDSSSDPRLRRLQNRISEDVEERLARHRKIVEPEVVGESDSEVEGDAWRMEREDSSEEEEEEIDDEEIERRRGMMRQRAQERKNEEMEVMEVEDEGRSGEESESESEYEEYTDSEDEMEPRLKPVFIRKKDRVTVQEREAEALKQKELEQEAKRMAEERRKYTLKIVEEETKKELEENKRSLAALDALNTDDENDEEEYEAWKVRELKRIKRDREDREALEKEKAEIERMRNLTEEERRAELRANGKVITNKAVKGKYKFLQKYYHRGAFFMDEDEEVYKRDFSAPTLEDHFNKTILPKVMQVKNFGRSGRTKYTHLVDQDTTSFDSAWGQESAQNTKFFKQKAAGVRDVFERPSAKKRKTT | 1.854 | 0.2766 | 1.161 | 2.2368
2 | MSANTD2 (protein, UniProt Q6P1R3 1-559, looked up) Myb/SANT-like DNA-binding …: MAAPCGSELPANSPLKIPKMEVLSPASPGGLSDGNPSLSDPSTPRGASPLGPGSAAGSGAAASGGLGLGLGGRSAASSSVSFSPGGGGGGAAAAAAAACRGMSWTPAETNALIAVWGNERLVEARYQQLEGAGTVFGSKAPGPAMYERVSRALAELGYERTPSQCRERIKTLRRCYSRVKEHGVGKRKSSYTFEQLEQVFGQGGWDAQPCQPVLINSSGLYQELESDGSTMEDYSQEDWGNHSQDLHGYPTDQELDEIPVTKRTLKIKQESSEEAQKRDIMQNIVQILESVQLKWELFQSWTDFSRLHLSNKLAIFGIGYNTRWKEDIRYHYAEISSQVPLGKRLREYFNSEKPEGRIIMTRVQKMNWKNVYYKFLEITISEARCLELHMEIDWIPIAHSKPTGGNVVQYLLPGGIPKSPGLYAIGYEECIERPLSPHMEQSSLDPGKEGRVDLETLSAQASLQVEIEPTRIIYCYLGIAEVRTLQQCLFLHFQANTKTFSKDWVGINGFLSQNCIVDPGVSPKSIYIKFVEVERDFLSAGSLVECLEKAIGYPLKFNN | 1.423 | 0.373 | 1.156 | 2.2282
3 | NPAT (protein, UniProt Q14207 1-1427, looked up) Protein NPAT: MLLPSDVARLVLGYLQQENLISTCQTFILESSDLKEYAEHCTDEGFIPACLLSLFGKNLTTILNEYVAMKTKETSNNVPAIMSSLWKKLDHTLSQIRSMQSSPRFAGSQRARTRTGIAEIKRQRKLASQTAPASAELLTLPYLSGQFTTPPSTGTQVTRPSGQISDPSRSYFVVVNHSQSQDTVTTGEALNVIPGAQEKKAHASLMSPGRRKSESQRKSTTLSGPHSTIRNFQDPNAFAVEKQMVIENAREKILSNKSLQEKLAENINKFLTSDNNIAQVPKQTDNNPTEPETSIDEFLGLPSEIHMSEEAIQDILEQTESDPAFQALFDLFDYGKTKNNKNISQSISSQPMESNPSIVLADETNLAVKGSFETEESDGQSGQPAFCTSYQNDDPLNALKNSNNHDVLRQEDQENFSQISTSIQKKAFKTAVPTEQKCDIDITFESVPNLNDFNQRGNSNAECNPHCAELYTNQMSTETEMAIGIEKNSLSSNVPSESQLQPDQPDIPITSFVSLGCEANNENLILSGKSSQLLSQDTSLTGKPSKKSQFCENSNDTVKLKINFHGSKSSDSSEVHKSKIEINVLEPVMSQLSNCQDNSCLQSEILPVSVESSHLNVSGQVEIHLGDSLSSTKQPSNDSASVELNHTENEAQASKSENSQEPSSSVKEENTIFLSLGGNANCEKVALTPPEGTPVENSHSLPPESVCSSVGDSHPESQNTDDKPSSNNSAEIDASNIVSLKVIISDDPFVSSDTELTSAVSSINGENLPTIILSSPTKSPTKNAELVKCLSSEETVGAVVYAEVGDSASMEQSLLTFKSEDSAVNNTQNEDGIAFSANVTPCVSKDGGYIQLMPATSTAFGNSNNILIATCVTDPTALGTSVSQSNVVVLPGNSAPMTAQPLPPQLQTPPRSNSVFAVNQAVSPNFSQGSAIIIASPVQPVLQGMVGMIPVSVVGQNGNNFSTPPRQVLHMPLTAPVCNRSIPQFPVPPKSQKAQGLRNKPCIGKQVNNLVDSSGHSVGCHAQKTEVSDKSIATDLGKKSEETTVPFPEESIVPAAKPCHRRVLCFDSTTAPVANTQGPNHKMVSQNKERNAVSFPNLDSPNVSSTLKPPSNNAIKREKEKPPLPKILSKSESAISRHTTIRETQSEKKVSPTEIVLESFHKATANKENELCSDVERQKNPENSKLSIGQQNGGLRSEKSIASLQEMTKKQGTSSNNKNVLSVGTAVKDLKQEQTKSASSLITTEMLQDIQRHSSVSRLADSSDLPVPRTPGSGAGEKHKEEPIDIIKAPSSRRFSEDSSTSKVMVPPVTPDLPACSPASETGSENSVNMAAHTLMILSRAAISRTTSATPLKDNTQQFRASSRSTTKKRKIEELDERERNSRPSSKNLTNSSIPMKKKKIKKKKLPSSFPAGMDVDKFLLSLHYDE | 1.209 | 0.4326 | 1.214 | 2.3205
4 | PDAP1 (protein, UniProt Q13442 1-181, looked up) 28 kDa heat- and acid-stable …: MPKGGRKGGHKGRARQYTSPEEIDAQLQAEKQKAREEEEQKEGGDGAAGDPKKEKKSLDSDESEDEEDDYQQKRKGVEGLIDIENPNRVAQTTKKVTQLDLDGPKELSRREREEIEKQKAKERYMKMHLAGKTEQAKADLARLAIIRKQREEAARKKEEERKAKDDATLSGKRMQSLSLNK | 1.555 | 0.3404 | 1.001 | 2.0014
5 | KNOP1 (protein, UniProt Q1ED39 1-458, looked up) Lysine-rich nucleolar protein …: MITKTHKVDLGLPEKKKKKKVVKEPETRYSVLNNDDYFADVSPLRATSPSKSVAHGQAPEMPLVKKKKKKKKGVSTLCEEHVEPETTLPARRTEKSPSLRKQVFGHLEFLSGEKKNKKSPLAMSHASGVKTSPDPRQGEEETRVGKKLKKHKKEKKGAQDPTAFSVQDPWFCEAREARDVGDTCSVGKKDEEQAALGQKRKRKSPREHNGKVKKKKKIHQEGDALPGHSKPSRSMESSPRKGSKKKPVKVEAPEYIPISDDPKASAKKKMKSKKKVEQPVIEEPALKRKKKKKRKESGVAGDPWKEETDTDLEVVLEKKGNMDEAHIDQVRRKALQEEIDRESGKTEASETRKWTGTQFGQWDTAGFENEDQKLKFLRLMGGFKNLSPSFSRPASTIARPNMALGKKAADSLQQNLQRDYDRAMSWKYSRGAGLGFSTAPNKIFYIDRNASKSVKLED | 1.624 | 0.3245 | 1.083 | 2.1181
